Series [1] in a line: Enzyme activity assay (hydrogen peroxide, POD-4-AA colour at 510 nm), fructosyl valyl histidine substrate. The note with it: for Activity per medium / Substrate specificity (% relative activity) FVH: crude enzyme sample; for action on fructosyl valyl histidine and ε-fructosyl lysine (in words): crude enzyme samples of Tables 1 and 2. The class given is biochemical. From the text:
Enzyme activities of the oxidase of the invention and the oxidase of the invention that have less action on ε-fructosyl lysine (hereinafter, the term “the oxidases of the invention” may comprise both the oxidase of the invention and the oxidase of the invention that have less action on ε-fructosyl lysine) may principally be determined by determining the amount of α-ketoaldehyde, peptide, hydrogen peroxide or the like which are produced through enzyme reaction or by determining the amount of oxygen consumed by the enzyme reaction. Hereinafter, a method for determining the amount of hydrogen peroxide will be described as one example. Unless otherwise noted, fructosyl valyl histidine is used as a substrate for determining the activities of the oxidases of the invention. Titer of the enzyme is defined such that an amount of enzyme for producing 1 μmol hydrogen peroxide per minute is 1U as determined using a fructosyl valyl histidine substrate. 1.0 kU of peroxidase (Toyobo Co., Ltd, TYPE III) and 100 mg of 4-aminoantipyrine (Tokyo Kasei Kogyo Co., Ltd.) are dissolved in 0.1 M potassium phosphate buffer (pH 8.0) to a constant volume of 1L. 25 ml of a commercially available 2% solution (available from Nacalai Tesque, Inc.) is dissolved in ion exchange water to a constant volume of 100 ml. 624 mg of fructosyl valyl histidine is dissolved in ion exchange water to a constant volume of 10 ml. Alternatively, fructosyl glycine or ε-fructosyl lysine of 357 mg or 462 mg, respectively, may be dissolved in ion exchange water to a constant volume of 10 ml to be used as a substrate. Fructosyl valine histidine was prepared as described in Japanese Patent Application Laid-Open (kohyo) No. 2001-95598. Fructosyl glycine and ε-fructosyl lysine were prepared according to a method of Horiuchi et al. (Agric. Biol. Chem., 53, 103-110, 1989; Agric. Biol. Chem., 55, 333-338, 1991). 2.7 ml of Reagent 1, 100 μl of Reagent 2 and 100 μl of enzyme solution are mixed and pre-heated at 30° C. for 5 minutes. Then, 100 μl of Reagent 3 is added and thoroughly mixed to determine absorbance at 510 nm using a spectrophotometer (U-[…], Hitachi, Ltd.). Measurement values indicate changes in the absorbance per minute at 510 nm after 1 to 3 minutes. A control solution was prepared in the same manner as described above except 100 μl ion exchange water was added instead of 100 μl Reagent 3. A standard solution of hydrogen peroxide and ion exchange water were used instead of Reagent 3 and the enzyme solution, respectively, to prepare a graph showing relationship with respect to the level of color. Referring to this graph, micromole of hydrogen peroxide produced per minute at 30° C. is calculated and used as the unit for expressing the activity of the enzyme solution. The presence of action on ε-fructosyl lysine can be determined in the same manner by using Reagent 3 (substrate solution) containing ε-fructosyl lysine substrate instead of fructosyl valyl histidine substrate.

Series [2] is described as follows: Enzyme activity assay, fructosyl glycine substrate. The class given is biochemical. The note with it: for Substrate specificity (% relative activity) FG: crude enzyme sample; for relative activity for fructosyl glycine: purified oxidase, compared to 100% activity for fructosyl valyl histidine. From the text: Enzyme activities of the oxidase of the invention and the oxidase of the invention that have less action on ε-fructosyl lysine (hereinafter, the term “the oxidases of the invention” may comprise both the oxidase of the invention and the oxidase of the invention that have less action on ε-fructosyl lysine) may principally be determined by determining the amount of α-ketoaldehyde, peptide, hydrogen peroxide or the like which are produced through enzyme reaction or by determining the amount of oxygen consumed by the enzyme reaction. Hereinafter, a method for determining the amount of hydrogen peroxide will be described as one example. Unless otherwise noted, fructosyl valyl histidine is used as a substrate for determining the activities of the oxidases of the invention. Titer of the enzyme is defined such that an amount of enzyme for producing 1 μmol hydrogen peroxide per minute is 1U as determined using a fructosyl valyl histidine substrate. 624 mg of fructosyl valyl histidine is dissolved in ion exchange water to a constant volume of 10 ml. Alternatively, fructosyl glycine or ε-fructosyl lysine of 357 mg or 462 mg, respectively, may be dissolved in ion exchange water to a constant volume of 10 ml to be used as a substrate. Fructosyl valine histidine was prepared as described in Japanese Patent Application Laid-Open (kohyo) No. 2001-95598. Fructosyl glycine and ε-fructosyl lysine were prepared according to a method of Horiuchi et al. (Agric. Biol. Chem., 53, 103-110, 1989; Agric. Biol. Chem., 55, 333-338, 1991). 2.7 ml of Reagent 1, 100 μl of Reagent 2 and 100 μl of enzyme solution are mixed and pre-heated at 30° C. for 5 minutes. Then, 100 μl of Reagent 3 is added and thoroughly mixed to determine absorbance at 510 nm using a spectrophotometer (U-[…], Hitachi, Ltd.). Measurement values indicate changes in the absorbance per minute at 510 nm after 1 to 3 minutes. A control solution was prepared in the same manner as described above except 100 μl ion exchange water was added instead of 100 μl Reagent 3. A standard solution of hydrogen peroxide and ion exchange water were used instead of Reagent 3 and the enzyme solution, respectively, to prepare a graph showing relationship with respect to the level of color. Referring to this graph, micromole of hydrogen peroxide produced per minute at 30° C. is calculated and used as the unit for expressing the activity of the enzyme solution. The presence of action on ε-fructosyl lysine can be determined in the same manner by using Reagent 3 (substrate solution) containing ε-fructosyl lysine substrate instead of fructosyl valyl histidine substrate.

Where [3] appears, read: relative to activity for ε-fructosyl lysine (100%).
The mark [4] stands for this setting: strain cultured on enzyme inducible medium 1 at 30° C. for 4 days, Tables 1 and 2.

B1: Eupenicillium terrenum ATCC 18547: fructosyl peptide oxidase produced by Eupenicillium terrenum ATCC 18547 with less action on ε-fructosyl lysine; amino acid sequence SEQ ID NO: 3 (protein, listed as Eupenicillium terrenum)
chain: MAHSRASTKVVVVGGGGTIGSSTALHLIRSGYTPSNITVLDVYKTPSLQSAGHDLNKIMGIRLRNGPDLQLSLESLDMWQNDELFKPFFHQVGMIDCSSSKEGIENLRRKYQTLLDAGIGLEKTNVWLESEDEILAKAPNFTREQVKGWKGLFCTDGGWLAAAKAINAIGIFLQDKGVKFGFGGAGTFQQPLFAADGKTCIGLETTDGTKYFADKVVLAAGAWSPTLVDLEDQCVSKAWVFAHIQLTPKEADAYKNVPVVYDGEYGFFFEPNEYGVIKVCDEFPGFSRFKLHQPYGAASPKMISVPRSHAKHPTDTYPDASEVTIRKAIARFLPEFKDKELFNRTMCWCTDTADANLLICEHPKWKNFILATGDSGHSFKLLPNIGKHVVELLEGSLSQEMAGAWRWRPGGDALRSRRGAPAKDLAEMPGWKHDAHL
For the molecule B1, the Activity per medium stood at 2.8 U/L in series [1] (Eupenicillium strains on enzyme induction media 1 at 30° C. for 4 days, Table 3) and 2.8 U/L in series [1] (setting [4]). Further, the “Substrate specificity (% relative activity) FVH” value in series [1] (reference substrate set to 100%) is 100%; in series [1] (setting [3]) it was 1023%. The “action on fructosyl valyl histidine and ε-fructosyl lysine (in words)” value in series [1] is given as “acted well on fructosyl valyl histidine but less on ε-fructosyl lysine”. Moreover, the results for the “Substrate specificity (% relative activity) FG” value in series [2] (relative to activity for fructosyl valyl histidine (100%)) and in series [2] (setting [3]) were 182% and 1862%, respectively. Besides, in series [2], the “relative activity for fructosyl glycine” value is 182%.

B2: Coniochaeta sp. NISL 9330: fructosyl peptide oxidase produced by Coniochaeta sp. NISL 9330 (FERM BP-7798) with less action on ε-fructosyl lysine; amino acid sequence SEQ ID NO: 1 (protein, listed as Coniochaeta sp.)
chain: MTSNRADTRVIVVGGGGTIGSSTALHLVRSGYAPANITVLDTFEIPSAQSAGHDLNKIMGIRLRNKVDLQMSLEARQMWKEDELFQPFFHNTGRMDCEHTPEGIEDLKKQYQALHDAGAGLEKTHAWLDNEDEILSKMPLLQRDQIQGWKAIWSQDGGWLAAAKAINAIGQFLKERGVKFGFGGAGSFKQPLFDDEGTTCIGVETADGTKYYADKVVLAAGAWSPTLVDLEDQCCSKAWVYAHIQLTPEEAAEYKGVPVVYNGEFGFFFEPNEFGVIKVCDEFPGFSRFKEHQPYGAPSPKHISVPRSHAKHPTDTYPDASEVSIKKAIATFLPRFQDKELFNRALCWCTDTADAALLMCEHPKWKNFILATGDSGHSFKILPNVGKHVVELIEGRLPEEMAYQWRWRPGGDALKSRRAAPPKDLADMPGWKHDPKL
Consider B2, for which the “Substrate specificity (% relative activity) FVH” value in series [1] (setting [3]) was determined as 165%. Further, the Activity per medium in series [1] (setting [4]) worked out at 70.1 U/L. Besides, the “action on fructosyl valyl histidine and ε-fructosyl lysine (in words)” value in series [1] is listed as “acted well on fructosyl valyl histidine but less on ε-fructosyl lysine”. Moreover, the “Substrate specificity (% relative activity) FG” value in series [2] (setting [3]) is on record as 65%. Further, the “relative activity for fructosyl glycine” value in series [2] is listed as 39%.

These data come from patent publication US7419813B2, “Fructosyl peptide oxidase” (Kikkoman Corporation, priority 2001, dated 2008).
